Test results from PMC7188994.

Biological target: SspA C314S mutant from Vibrio cyclitrophicus FF75 (Vibrio cyclitrophicus FF75)
Experiment: crystal structure; SspA C314S with cysteine substrate and PLP; hanging drop at 14°C, 1.8 M ammonium citrate pH 7.0; space group P6_(3)22, two molecules in each asymmetric unit; 1.80 Å

stoichiometry N: 2
Substance: SspA C314S mutant from Vibrio cyclitrophicus FF75 (from UniProt A0AAN0N811 1-211) (enzyme)
